Data as given in patent US20210396761A1 (AICURIS, published 2021).

Experiments:
[1] = target: T1, EBV BFLF2, C-terminally fused to the Flag epitope (pcDNA-BFLF2-Flag, pHM4698) (Epstein-Barr virus (EBV) strain B95-8, UniProt P0CK47 1-318); experiment: coimmunoprecipitation, transiently transfected 293T cells
T1 construct: also called Flag-tagged BFLF2
T1 sequence: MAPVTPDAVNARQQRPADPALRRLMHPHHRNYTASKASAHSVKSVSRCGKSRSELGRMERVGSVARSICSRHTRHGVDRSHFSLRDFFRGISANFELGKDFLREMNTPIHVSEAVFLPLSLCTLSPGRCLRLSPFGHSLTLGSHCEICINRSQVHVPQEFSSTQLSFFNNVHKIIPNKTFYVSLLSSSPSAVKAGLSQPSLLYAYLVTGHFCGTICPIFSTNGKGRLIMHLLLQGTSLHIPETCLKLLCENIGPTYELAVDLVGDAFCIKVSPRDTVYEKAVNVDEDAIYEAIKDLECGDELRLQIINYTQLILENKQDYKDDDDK

[2] = target: the molecule itself; experiment: analytical size exclusion chromatography (Superdex 75 10/300)
[3] = target: T2, pUL53 (50-292) (human cytomegalovirus (HCMV) strain …, UniProt P16794 50-292); experiment: analytical size exclusion chromatography, coproduced in E. coli and also mixed in vitro
T2 sequence: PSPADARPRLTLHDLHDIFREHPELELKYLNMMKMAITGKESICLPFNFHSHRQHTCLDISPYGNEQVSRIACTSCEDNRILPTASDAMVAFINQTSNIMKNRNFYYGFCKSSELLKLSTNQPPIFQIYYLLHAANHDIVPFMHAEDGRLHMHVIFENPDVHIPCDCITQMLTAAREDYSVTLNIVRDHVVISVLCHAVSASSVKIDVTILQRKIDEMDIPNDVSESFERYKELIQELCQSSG

[4] = target: T3, HCMV pUL50, C-terminally fused to the HA epitope (pcDNA-UL50-HA, pHM2589) (human cytomegalovirus (HCMV) strain …, UniProt P16791 1-397); experiment: coimmunoprecipitation, transiently transfected 293T cells
T3 sequence: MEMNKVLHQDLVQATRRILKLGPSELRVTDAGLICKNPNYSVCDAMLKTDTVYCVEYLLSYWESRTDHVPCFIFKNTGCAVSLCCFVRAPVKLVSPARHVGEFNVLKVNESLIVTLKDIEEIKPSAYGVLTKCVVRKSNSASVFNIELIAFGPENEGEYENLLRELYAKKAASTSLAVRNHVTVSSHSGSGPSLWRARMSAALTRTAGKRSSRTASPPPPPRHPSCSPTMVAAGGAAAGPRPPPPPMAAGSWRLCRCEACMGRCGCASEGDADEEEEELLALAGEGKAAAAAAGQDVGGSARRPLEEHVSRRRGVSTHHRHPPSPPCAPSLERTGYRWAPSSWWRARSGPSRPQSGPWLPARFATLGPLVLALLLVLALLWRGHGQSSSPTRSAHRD

[5] = target: T4, VZV Orf24, C-terminally fused to the HA epitope (pcDNA-Orf24-HA, pHM4695) (varicella zoster virus (VZV) strain …, UniProt P09280 1-269); experiment: as above
T4 sequence: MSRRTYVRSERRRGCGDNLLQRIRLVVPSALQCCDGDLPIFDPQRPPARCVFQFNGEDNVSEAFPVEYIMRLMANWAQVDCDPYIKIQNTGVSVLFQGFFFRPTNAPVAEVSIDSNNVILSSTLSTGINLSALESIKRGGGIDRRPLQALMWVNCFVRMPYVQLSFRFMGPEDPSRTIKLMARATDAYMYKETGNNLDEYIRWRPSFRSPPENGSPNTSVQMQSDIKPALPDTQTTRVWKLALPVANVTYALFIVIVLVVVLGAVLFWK

B1: MCMV pM50, C-terminally fused to the HA epitope (pcDNA-M50-HA, pHM4717) (other)
chain: MEIDKNVGADLISNTRRILRLDENELRITDTALICKNPNYSLCDAMLTTDIVYPVEYLLSYWECRSGRTACFVFKNTGCRVSLSCYIGFPERLKDLKRVCDFNFLSVNEALVVTLADIERIKPCDKGVLTNCVVRKSNSGMSYNIEVVAFGPDNEAEYQALLRDIYARRMTSVPTDCGSLICRRARCLAAAPPRRPPPPPPPGQRWGSLRKHGPVLTRRYAGGGGAAKNQPAAASPTSTSTSSPAAPSRDQDQTQRPPPAGDTNVTAAETTYSERTISFLTRHANAIHCALILAAAIALVLLWLLYWHAARSAGHP
notes: also called pM50-HA; HA-tagged pM50
[1]
  binding result: no binding

B2: pUL50 (1-181) (other)
chain: MEMNKVLHQDLVQATRRILKLGPSELRVTDAGLICKNPNYSVCDAMLKTDTVYCVEYLLSYWESRTDHVPCFIFKNTGCAVSLCCFVRAPVKLVSPARHVGEFNVLKVNESLIVTLKDIEEIKPSAYGVLTKCVVRKSNSASVFNIELIAFGPENEGEYENLLRELYAKKAASTSLAVRNH
[2]
  binding result: no binding
[3]
  binding result: binds

B3: MCMV pM53, C-terminally fused to the Flag epitope (pcDNA-M53-Flag, pHM4718) (other)
chain: MFRSPEGEERDAADREEEEGGEARRRSRMMMSPRRVKRARHRPAGSGLRTPLRSPSACRCSSPSPERQWQQRRRAEKRSTTPTDPPPPPKRSAASAAAGAAAPESEYLNVKLSELHDVFQRHPDLEQKYLKIMKLPITGKESIRLPFDFKSHRQHTCLDLSPYGNDQVSRSACTTCKETTRLPTASDSMVAFINQTSNVMKHRKFYFGFRKNMELLKMAANQPQLFQIYYIVQSCVQEIVPLIYYDREMAHMQLIFEKETVHIPSQCIEQILTVAKDAYGVSLDIAHQRITLTARCLRLESSSLRIDVLMLQRKVDELEIPNETNEKFESYSLDYKDDDDK
notes: also called pM53-Flag; Flag-tagged pM53
[4]
  binding result: binds
[5]
  binding result: no binding
